Results taken from patent publication US20260116996A1 (REGENTS OF THE UNIVERSITY OF MINNESOTA, published 2026).

Tests used:
[1] = molecular target: T1, recombinant human serpinB13 (human, UniProt Q9UIV8 1-391)
T1 construct: The baculovirus-made protein (GenScript) was used for panning, ELISA and the cathepsin L assay; In the Luminex assay human serpinB13 was V5-His tagged and came from 293 cell lysates; also called rhB13
T1 sequence (looked up): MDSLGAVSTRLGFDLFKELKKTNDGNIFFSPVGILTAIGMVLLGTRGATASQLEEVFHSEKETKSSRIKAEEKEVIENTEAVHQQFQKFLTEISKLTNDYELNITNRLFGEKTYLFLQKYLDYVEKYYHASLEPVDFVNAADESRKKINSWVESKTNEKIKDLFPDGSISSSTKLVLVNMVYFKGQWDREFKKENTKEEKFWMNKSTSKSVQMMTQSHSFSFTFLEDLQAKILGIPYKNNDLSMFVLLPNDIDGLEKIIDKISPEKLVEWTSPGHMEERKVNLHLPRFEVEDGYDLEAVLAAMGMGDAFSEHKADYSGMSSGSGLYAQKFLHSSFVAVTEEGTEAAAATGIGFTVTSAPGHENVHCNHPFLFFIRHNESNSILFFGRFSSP

mouse serpinB13 (mouse) = mouse serpinB13 (mouse) (UniProt Q8CDC0); test: flow cytometry, isotype control staining in place of B29 and anti-EpCAM; the tissue of this panel is not named
Sequence of mouse serpinB13 (mouse) (Q8CDC0 whole entry): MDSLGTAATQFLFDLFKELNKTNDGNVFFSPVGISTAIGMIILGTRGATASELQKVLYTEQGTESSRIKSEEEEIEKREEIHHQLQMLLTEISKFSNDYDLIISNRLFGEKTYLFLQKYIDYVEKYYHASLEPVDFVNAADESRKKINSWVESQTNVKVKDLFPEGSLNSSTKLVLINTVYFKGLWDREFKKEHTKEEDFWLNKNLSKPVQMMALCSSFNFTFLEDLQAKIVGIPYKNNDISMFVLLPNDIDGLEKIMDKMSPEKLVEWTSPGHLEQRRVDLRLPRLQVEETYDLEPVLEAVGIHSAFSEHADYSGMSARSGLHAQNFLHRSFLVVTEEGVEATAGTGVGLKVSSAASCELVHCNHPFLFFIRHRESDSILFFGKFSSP

quadrant Q1 (SerpinB13-Alexa647 high, EpCAM low), percent of cells (mouse serpinB13 (mouse))	Substance	substrate cleavage by CatL (fluorescence, kinetic mode) [1]
	cathepsin L (Cathepsin L Inhibitor Screening Kit, BioVision)	Inhibition of a substrate cleavage by CatL with different doses of recombinant human serpinB13 over time
0.43	Control Ab (antibody)	
